Test results published in paper PMC4376794, “Production of Functional Human Vitamin A Transporter/RBP Receptor (STRA6) for Structure Determination” (PLoS ONE, 2015).

Experiments:
[1] = biological target: T1, retinol binding protein (His-RBP) (UniProt P02753 19-201); assay: SPR; apo-RBP (6.9-219.3 uM) flowed over STRA6-GFP captured by its c-Myc tag on immobilised anti-c-Myc antibody (CM5, Biacore 3000); anti-HA antibody reference cell; room temperature; steady-state responses fitted to one site plus a linear low-affinity component; triplicate; conditions: both partners purified
[2] = biological target: T1, retinol binding protein (His-RBP); assay: SPR; holo-RBP (retinol-loaded, 6.9-219.3 uM) flowed over STRA6-GFP captured by its c-Myc tag on immobilised anti-c-Myc antibody (CM5, Biacore 3000); anti-HA antibody reference cell; room temperature; steady-state responses fitted to one site plus a linear low-affinity component; triplicate; conditions: both partners purified

Kd [1]: 22.4 µM | Kd [2]: 19.4 µM
B1: STRA6-GFP-c-Myc-His6 (STRA6-HRV3C-eGFP-Myc-His6) (receptor, human)
chain: MSSQPAGNQTSPGATEDYSYGSWYIDEPQGGEELQPEGEVPSCHTSIPPGLYHACLASLSILVLLLLAMLVRRRQLWPDCVRGRPGLPSPVDFLAGDRPRAVPAAVFMVLLSSLCLLLPDEDALPFLTLASAPSQDGKTEAPRGAWKILGLFYYAALYYPLAACATAGHTAAHLLGSTLSWAHLGVQVWQRAECPQVPKIYKYYSLLASLPLLLGLGFLSLWYPVQLVRSFSRRTGAGSKGLQSSYSEEYLRNLLCRKKLGSSYHTSKHGFLSWARVCLRHCIYTPQPGFHLPLKLVLSATLTGTAIYQVALLLLVGVVPTIQKVRAGVTTDVSYLLAGFGIVLSEDKQEVVELVKHHLWALEVCYISALVLSCLLTFLVLMRSLVTHRTNLRALHRGAALDLSPLHRSPHPSRQAIFCWMSFSAYQTAFICLGLLVQQIIFFLGTTALAFLVLMPVLHGRNLLLFRSLESSWPFWLTLALAVILQNMAAHWVFLETHDGHPQLTNRRVLYAATFLLFPLNVLVGAMVATWRVLLSALYNAIHLGQMDLSLLPPRAATLDPGYYTYRNFLKIEVSQSHPAMTAFCSLLLQAQSLLPRTMAAPQDSLRPGEEDEGMQLLQTKDSMAKGARPGASRGRARWGLAYTLLHNPTLQVFRKTALLGANGAQP
notes: human STRA6, full length (transcript variant 2); In SPR it was held by its C-terminal c-Myc tag on an anti-c-Myc antibody; also called vitamin A transporter/RBP receptor; RBP receptor; source: Pichia pastoris KM71H (pPICZ-A); on whole cells, in broken cells, and purified (solubilised in C12E9, Ni-NTA with exchange to DDM, size exclusion); not shown: GFP (eGFP), C-terminal, kept; c-Myc, …
